Test results: paper PMC2597415
Residue numbers refer to the chain shown, from its start.

Tests used:
[1] = substrate: O=C(CO)[C@H](O)[C@H](O)COP(=O)(O)O; experiment: coupled-enzyme spectrophotometric assay of RPE activity; assay type: biochemical, Escherichia coli; details: Co2+ enzyme
[2] = substrate: O=C(CO)[C@H](O)[C@H](O)COP(=O)(O)O; experiment: as above; assay type: biochemical, Streptococcus pyogenes; details: Co2+ enzyme

B1: ALSE (D-allulose 6-phosphate 3-epimerase) (Escherichia coli K-12) (protein)
chain: MKISPSLMCMDLLKFKEQIEFIDSHADYFHIDIMDGHFVPNLTLSPFFVSQVKKLATKPLDCHLMVTRPQDYIAQLARAGADFITLHPETINGQAFRLIDEIRRHDMKVGLILNPETPVEAMKYYIHKADKITVMTVDPGFAGQPFIPEMLDKLAELKAWREREGLEYEIEVDGSCNQATYEKLMAAGADVFIVGTSGLFNHAENIDEAWRIMTAQILAAKSEVQPHAKTA
Km [1]: 3.0 ± 0.3 mM | kcat [1]: 2 ± 0.8 s⁻¹ | kcat/Km [1]: 670 M⁻¹ s⁻¹

B2: RPE (D-ribulose 5-phosphate 3-epimerase) (Streptococcus pyogenes serotype M1) (protein)
chain: MSTLKIAPSILAADYANFASELARIEETDAEYVHIDIMDGQFVPNISFGADVVASMRKHSKLVFDCHLMVVDPERYVEAFAQAGADIMTIHTESTRHIHGALQKIKAAGMKAGVVINPGTPATALEPLLDLVDQVLIMTVNPGFGGQAFIPECLEKVATVAKWRDEKGLSFDIEVDGGVDNKTIRACYEAGANVFVAGSYLFKASDLVSQVQTLRTALNV
Km [2]: 1.2 ± 0.1 mM | kcat [2]: 3800 ± 160 s⁻¹ | kcat/Km [2]: 3.2e+06 M⁻¹ s⁻¹

B3: ALSE (D-allulose 6-phosphate 3-epimerase) (Escherichia coli K-12; DEL196-196) (protein)
chain: MKISPSLMCMDLLKFKEQIEFIDSHADYFHIDIMDGHFVPNLTLSPFFVSQVKKLATKPLDCHLMVTRPQDYIAQLARAGADFITLHPETINGQAFRLIDEIRRHDMKVGLILNPETPVEAMKYYIHKADKITVMTVDPGFAGQPFIPEMLDKLAELKAWREREGLEYEIEVDGSCNQATYEKLMAAGADVFIVGSGLFNHAENIDEAWRIMTAQILAAKSEVQPHAKTA
Km [1]: 3.9 ± 0.5 mM | kcat [1]: 130 ± 7 s⁻¹ | kcat/Km [1]: 33000 M⁻¹ s⁻¹

B4: ALSE (D-allulose 6-phosphate 3-epimerase) (Escherichia coli K-12; DEL198-198) (protein)
chain: B3 chain with S196T, G197S
Km [1]: 5.1 ± 0.5 mM | kcat [1]: 440 ± 20 s⁻¹ | kcat/Km [1]: 86000 M⁻¹ s⁻¹

B5: ALSE (D-allulose 6-phosphate 3-epimerase) (Escherichia coli K-12; DEL197-197) (protein)
chain: B3 chain with S196T
Km [1]: 2.8 ± 0.6 mM | kcat [1]: 240 ± 14 s⁻¹ | kcat/Km [1]: 85000 M⁻¹ s⁻¹
